According to paper PMC7486241 (Cell Host & Microbe, 2020):
Positions count from the first letter of the chain named. Where two headings read alike, the source gives them in different places.

Assays:
[1] = biological target: T1, recombinant HA of H1N1 A/California/04/2009, biotinylated (Influenza A virus A/California/04/2009 …, UniProt C3W5S1, strain, biotin)
[2] = biological target: T2, recombinant HA of H5N1 A/Indonesia/05/2005, biotinylated (Influenza A virus A/Indonesia/05/2005 …, UniProt C5MRF2, strain, biotin)
[3] = biological target: H9N2 A/Hongkong/1073/1999 hemagglutinin (HA), biotinylated recombinant (influenza A virus A/Hongkong/1073/1999 …, biotin); test: BLI; conditions: both partners purified
[4] = biological target: H7N9 A/Shanghai/02/2013 hemagglutinin (HA), biotinylated recombinant (Influenza A virus A/Shanghai/02/2013 …, UniProt R4NN21, biotin); test: BLI; conditions: both partners purified
[5] = biological target: H3N2 A/Texas/50/2012 hemagglutinin (HA), biotinylated recombinant (influenza A virus A/Texas/50/2012 (H3N2), biotin); test: BLI; conditions: both partners purified
[6] = biological target: T1, recombinant HA of H1N1 …; test: Meso Scale Discovery (MSD) electrochemiluminescence binding assay; conditions: both partners purified
[7] = biological target: recombinant HA of H1N1 A/New Caledonia/20/1999, biotinylated (Influenza A virus A/New …, UniProt Q6WG00, strain, biotin); test: as above; conditions: both partners purified
[8] = biological target: recombinant HA of H3N2 A/Texas/50/2012, biotinylated (Influenza A virus A/Texas/50/2012 (H3N2), UniProt R4L1D1, strain, biotin); test: as above; conditions: both partners purified
[9] = biological target: recombinant HA of H9N2 A/Hongkong/1073/1999, biotinylated (Influenza A virus A/Hong Kong/1073/1999 …, UniProt Q9ICY5, strain, biotin); test: as above; conditions: both partners purified
[10] = biological target: T3, recombinant HA of H3N2 A/Hongkong/1/1968, biotinylated (Influenza A virus A/Hong Kong/1/1968 …, UniProt Q91MA7, strain, biotin); test: as above; conditions: both partners purified
T3 construct: source: plasmid pCMV/R-HA-AviHis, Andrews et al., 2017

[11] = biological target: recombinant HA of H7N9 A/Shanghai/02/2013, biotinylated (Influenza A virus A/Shanghai/02/2013 …, UniProt R4NN21, strain, biotin); test: as above; conditions: both partners purified
[12] = biological target: T2, recombinant HA of H5N1 …; test: as above; conditions: both partners purified
[13] = biological target: T4, HA ectodomain of A/California/04/2009 (H1N1), cleaved mature HA (HA1/HA2) (influenza A virus A/California/04/2009 …); test: crystal structure; conditions: both partners purified
T4 construct: copies: 3 + 3

B1: 54-1B01 (antibody, V domains shown)
VH: QVQLQQSGPGVVKPSQSLALTCAISGDSVSNDRVAWIWIRQSPSRGLEWLGRTYYRSKWYNDYANSVRGRMTINPDTSKNQFSLNLDSVTPDDTAVYYCARGMIFGRPLTGWYFDFWGRGTLVTVSS
VL: EIVLTQSPGTLSLSAGERVTLFCRASQHVSSGYLAWYQQKPGQAPRLLIYGATNRATGIPDRFSGSGSGTDFALTISRLEPEDFAVYYCQQFDSSSMYTFGQGTKLEIK
B1: binds [1]; binds [2].

B2: 58-6E11 Fab (Fab, V domains shown)
VH: QVQLPQSGPGLVKPSQTLSLTCAISGDSVSSNSAVWTWIRQSPSRGLEWLGRTYYRSKWYNDYAVSVESRITINPDTSKNQFSLQLKSVTPEDTAVYFCARSGITIFGVSVMAMDIWGQGTTVIVSS
VL: EIVLTQSPGTLSLSPGERATLSCRASQNVAVSYLAWYQQKPGQPPRLLIYGASSRATGIPGRFTGSGSGTDFTLTINRLEPEDSAVYYCQQYATSPRALTFGGGTKVEIK
B2: no binding (tested: 3200 nM (highest Fab concentration)) [3]; no binding (tested: 3200 nM (highest Fab concentration)) [4]; no binding (tested: 3200 nM (highest Fab concentration)) [5].

B3: 54-1G07 Fab (Fab, V domains shown)
VH: QVQLQQSGPGLVKPSQTLALTCGISGDTVSNNRVAWNWIRQSPSRGLEWLGRTYYRSKWYSDYSKSVTGRMTINPDTSKNQFSLHLDSVTPADTAVYYCARGMIFGWPLTGWYFDLWGRGTLVTVSS
VL: B1 VL with A15P, F22L, Q27H
B3: no binding (tested: 3200 nM (highest Fab concentration)) [3].

B4: ClonB UCA Fab (Fab, V domains shown)
VH: B2 VH with P5Q, E68K, F98Y, S110I, V111I, I124T
VL: B2 VL with G61D, A93G, T94S
notes: also called early intermediate of clonotype B; EI (clonotype B)
B4: no binding (tested: 3200 nM (highest Fab concentration)) [3]; no binding (tested: 3200 nM (highest Fab concentration)) [5].

B5: 54-1G05 (clonotype B), IgG (antibody, V domains shown)
VH: QVQLQQSGPRLVKPSQTLSLTCAISGDSVSSSSAVWTWIRQSPSRGLEWLGRTYYRSKWYDDYAVSVQGRITINPDTSKNQISLQLNSVTPDDTAVYYCARSSINIFGVFVMAMDVWGQGTAVTVSS
VL: EIVLTQSPGTLSLSPGERVTLSCRASQTVYNSYLAWYQQKPGQAPTLLIYGTSTRATGVPDRFSGSGSGTVFTLTISRLEPEDFAVYFCQQYSTSPRALTFGGGTKVEIK
notes: source: Expi293 cells, transfected, purified from the supernatant (Protein A)
B5: binds [6]; binds [7]; binds [8]. B5: binds [9]; binds [10]; binds [11]. B5: binds [12].

B6: 54-4H03 Fab (Fab, V domains shown)
VH: QVQLQQSGPGLVKPSQTLSLTCAISGDSVSSNSVAWNWIRQSPSRGLEWLGRTYFRSKWYTDYAESLKSRMTINPDTSKNEFSLHLKSVTSDDTAVYYCVRGIIFNWPLGGWSFDLWGRGTLVSVSS
VL: EIVLTQSPGTLSLSPGDSATLSCRASQSVASSYLAWYQQKPGQSPRLLIYATINRAADIPDRFSGSGSGTDFALTISRLEPEDFAVYYCQQFDSSSMYTFGQGTKLEIT
B6: binds [13].

B7: 54-4H03 (clonotype A), IgG (antibody, V domains shown)
VH: B6 VH
VL: B6 VL
B7: binds [6]; binds [11].

B8: 54-1G07 (clonotype A), IgG (antibody, V domains shown)
VH: B3 VH
VL: B1 VL with A15P, F22L, Q27H
notes: IgG format
B8: binds [6]; binds [12].

B9: early intermediate of clonotype A, IgG (antibody, V domains shown)
VH: QVQLQQSGPGLVKPSQTLSLTCAISGDSVSSNSAAWNWIRQSPSRGLEWLGRTYYRSKWYNDYAVSVKSRITINPDTSKNQFSLQLNSVTPEDTAVYYCARGMIFNWPLGGWSFDLWGRGTLVTVSS
VL: B1 VL with A15P, V19A, F22S, H28S, G32S, T53S, N54S, A73T
B9: binds [6].

B10: early intermediate of clonotype B, IgG (antibody, V domains shown)
VH: B2 VH with P5Q, E68K, F98Y, S110I, V111I, I124T
VL: B2 VL with G61D, A93G, T94S
B10: binds [6].

B11: 54-1G05 VL early intermediate, IgG (54-1G05 VH paired with VL from the early intermediate of clonotype B) (antibody, V domains shown)
VH: B5 VH
VL: B2 VL with G61D, A93G, T94S
notes: IgG format
B11: binds [11].

B12: 54-4H03 VH G100cT/S100fY, IgG (54-4H03 light chain) (antibody, V domains shown)
VH: B6 VH with G110T, S113Y
VL: B6 VL
B12: no binding [11]; no binding [12].
